Target: Cas9 protein fused to 10 tandem copies of GCN4 peptide separated by linkers (SunTag) (Streptococcus pyogenes) (UniProt Q99ZW2)
Assay: cell-based or functional assay

Sequence of UniProt Q99ZW2 (Q99ZW2 whole entry, the tested form may be a part): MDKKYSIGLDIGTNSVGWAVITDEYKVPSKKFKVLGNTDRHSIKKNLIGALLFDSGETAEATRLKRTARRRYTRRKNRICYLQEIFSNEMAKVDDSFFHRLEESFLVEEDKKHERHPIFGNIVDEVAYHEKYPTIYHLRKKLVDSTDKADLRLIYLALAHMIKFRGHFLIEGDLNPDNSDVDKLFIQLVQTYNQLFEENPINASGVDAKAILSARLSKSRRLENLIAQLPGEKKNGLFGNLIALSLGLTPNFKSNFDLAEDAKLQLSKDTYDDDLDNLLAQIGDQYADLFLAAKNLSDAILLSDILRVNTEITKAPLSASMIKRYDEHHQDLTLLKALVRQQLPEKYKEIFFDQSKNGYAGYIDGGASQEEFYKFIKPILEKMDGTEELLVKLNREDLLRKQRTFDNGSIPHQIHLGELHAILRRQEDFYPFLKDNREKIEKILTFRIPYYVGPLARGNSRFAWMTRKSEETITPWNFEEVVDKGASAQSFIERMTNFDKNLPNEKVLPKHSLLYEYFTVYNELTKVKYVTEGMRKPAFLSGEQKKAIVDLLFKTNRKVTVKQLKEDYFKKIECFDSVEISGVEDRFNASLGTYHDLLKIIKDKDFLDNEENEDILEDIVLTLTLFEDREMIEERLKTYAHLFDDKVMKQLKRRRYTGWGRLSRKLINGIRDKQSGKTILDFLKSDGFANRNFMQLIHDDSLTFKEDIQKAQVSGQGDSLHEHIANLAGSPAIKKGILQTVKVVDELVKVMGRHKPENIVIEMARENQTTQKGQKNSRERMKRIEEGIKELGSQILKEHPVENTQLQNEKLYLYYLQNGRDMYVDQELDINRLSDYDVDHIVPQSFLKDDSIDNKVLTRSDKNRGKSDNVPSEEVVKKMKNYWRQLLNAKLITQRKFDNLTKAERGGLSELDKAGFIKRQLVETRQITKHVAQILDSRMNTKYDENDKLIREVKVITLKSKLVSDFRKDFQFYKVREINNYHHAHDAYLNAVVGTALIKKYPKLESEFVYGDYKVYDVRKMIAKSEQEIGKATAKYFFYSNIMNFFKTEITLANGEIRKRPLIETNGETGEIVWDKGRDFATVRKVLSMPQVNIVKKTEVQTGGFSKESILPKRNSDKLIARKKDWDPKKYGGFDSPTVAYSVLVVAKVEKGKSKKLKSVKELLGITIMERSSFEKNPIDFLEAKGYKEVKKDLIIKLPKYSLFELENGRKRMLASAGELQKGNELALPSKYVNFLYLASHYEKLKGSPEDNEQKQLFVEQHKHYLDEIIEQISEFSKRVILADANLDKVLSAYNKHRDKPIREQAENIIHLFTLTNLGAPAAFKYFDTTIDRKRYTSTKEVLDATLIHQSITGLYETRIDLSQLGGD

Substance: REDIT recombinator protein (SSAP RecT) fused to scFV antibody peptide (SunTag recruitment)
- HRD efficiencies (mKate knock-in assay): 2 fold

Reference: US20250354164A1
